Experiments:
Assay in all cases: cell-based or functional assay
[1] = molecular target: HLA-DQ2.5 on IHW09023 cells loaded with omega1/2 gliadin peptide (human; wheat)
[2] = molecular target: HLA-DQ2.5 on IHW09023 cells loaded with gamma 4d gliadin peptide (human; wheat)
[3] = molecular target: HLA-DQ2.5 on IHW09023 cells loaded with BC hordein peptide (human; barley)
[4] = molecular target: HLA-DQ2.5 on IHW09023 cells loaded with gamma 1 gliadin peptide (human; wheat)
[5] = molecular target: HLA-DQ2.5 on IHW09023 cells loaded with gamma 3 gliadin peptide (human; wheat)
[6] = molecular target: HLA-DQ2.5 on IHW09023 cells loaded with gamma 2 gliadin peptide (human; wheat)
[7] = molecular target: HLA-DQ2.5 on IHW09023 cells loaded with gamma 4a gliadin peptide (human; wheat)
[8] = molecular target: HLA-DQ2.5 on IHW09023 cells loaded with 33 mer gliadin peptide (human; wheat)

- IC50, ω1 gliadin TCR, 25 µM ω1/2 gliadin [1]: 0.00312 µg/mL
- IC50, ω2 gliadin TCR, 250 nM ω1/2 gliadin [1]: > 0.5 µg/mL
- IC50, γ4d gliadin TCR, 100 µM γ4d gliadin [2]: > 20 µg/mL
- IC50, BC hordein TCR, 250 nM BC hordein [3]: > 20 µg/mL
- IC50, γ1 gliadin TCR, 250 nM γ1 gliadin [4]: > 20 µg/mL
- IC50, γ3 gliadin TCR, 100 µM γ3 gliadin [5]: 3.1 µg/mL
- IC50, γ2 gliadin TCR, 250 nM γ2 gliadin [6]: > 20 µg/mL
- IC50, γ4a gliadin TCR, 25 µM γ4a gliadin [7]: > 20 µg/mL
- IC50, α1a gliadin TCR, 250 nM 33mer gliadin [8]: 0.0106 µg/mL
- IC50, α1b gliadin TCR, 250 nM 33mer gliadin [8]: 0.0464 µg/mL
- IC50, α2 gliadin TCR, 250 nM 33mer gliadin [8]: 0.00175 µg/mL
B1: DQN034425 (antibody, V domains shown)
VH: QVQLVESGGGVVQPGRSLRLSCAASGFTFSSSYWMCWVRQAPGQGLEWMGCVYGGSDTTYYASWTKGRFTISRDNSKNTLYLQMNSLRAEDTAVYYCARDPLNYYYYGELNLWGQGTLVTVSS
VL: DIQMTQSPSSLSASVGDRVTITCQATENIYSGLAWYQQKPGKAPKLLIYYVSTLASGIPARFSGSGSGTDFTLTISSLEPEDFAVYYCQTYHDISNVTFGQGTKVEIK

Reference: US20220089743A1
